Several values for one entry are separate records, joined by “and”; a condition that tells them apart may be missing. Equal entries are not always repeated. Where two headings read alike, the source gives them in different places. Where no end group is shown, it is not given here. [ ]: non-standard residue; d: D form. Nab = not defined here; Nbn = not defined here
What was measured:
[1] = biological target: T1, PrP^Sc (Homo sapiens, UniProt P04156); assay type: binding
[2] = biological target: T2, PrPc (Homo sapiens, UniProt P04156); assay type: binding
[3] = biological target: T1, PrP^Sc
[4] = biological target: T2, PrPc; conditions: for LU, Pulldown, PrPC / pg, Pulldown, PrPC: 3M GdnSCN; for pg, Pulldown, PrPC: rPrP standard curve
[5] = biological target: T1, PrP^Sc; conditions: Table 15
[6] = biological target: T2, PrPc; conditions: Table 15
[7] = biological target: T1, PrP^Sc; conditions: Table 16
[8] = Table 7, covalently bound to magnetic beads, 70% human plasma
[9] = 70 ul plasma (70%) + 50 nl 10% normal BH
[10] = 15 μl GdnSCN 3M, pH 5.9, 210 μl H20, final pH 6.0
[11] = H3PO4 (50 μl) 0.00007M, pH 4, NaOH (25 μl) 0.0031N
[12] = H3PO4 (50 μl) 0.00075M, pH 3, NaOH (25 μl) 0.031N
[13] = H3PO4 (50 μl) 0.12M, pH 2, NaOH (25 μl) 0.31N
[14] = H3PO4 (50 μl) 0.5M, pH 1, NaOH (25 μl) 3.1N
[15] = NaOH (50 μl) 0.0001M, pH 10, NaH2PO4 (20 μl) 0.0003M
[16] = NaOH (50 μl) 0.001M, pH 11, NaH2PO4 (20 μl) 0.003M
[17] = NaOH (50 μl) 0.1M, pH 12, NaH2PO4 (20 μl) 0.03M
[18] = NaOH (50 μl) 0.1M, pH 13, NaH2PO4 (20 μl) 0.3M

In the case of “Peptoid Reagent XIIb: peptoid reagent comprising SEQ ID NO: 240, Nab-Nab-Nab-Nbn-Nab-Nbn, covalently bound to magnetic beads ([Nab][Nab][Nab][Nbn][Nab][Nbn]; reading uncertain; also: covalently bound to magnetic beads, printed as Nab-Nab-Nab-Nbn-Nab-Nbn)”, the Mean [1, 8] is reported as 174.3, the “Mean (% of 68)” value [1, 8] is reported as 126.4% and the Mean binding ([1]; Table 10, 0.833 nL human vCJD 10% brain homogenate, 70% human plasma, covalently attached to beads) is reported as 49.2. The Mean binding ([1]; Table 10, 2.5 nL human vCJD 10% brain homogenate, 70% human plasma, covalently attached to beads) was 57.3, the Mean binding ([1]; Table 10, 7.5 nL human vCJD 10% brain homogenate, 70% human plasma, covalently attached to beads) was 121.1 and the Mean binding ([1]; Table 11, TBSTT with 70% Human Plasma containing 20 nL 10% human CJD brain homogenate) was 1390.8. The “Mean (% of Control)” value ([1]; Table 13, Control Human Plasma) was 100.0%, the “Mean (% of Control)” value ([1]; Table 13, Human Plasma lot KC011886) was 132.78% and the “Mean (% of Control)” value ([1]; Table 13, Human Plasma lot KC011892) was 127.51%. For the same substance, the “Mean (% of Control)” value ([1]; Table 13, Human Plasma lot KC28719) was 126.03%, the “Mean (% of Control)” value ([1]; Table 13, Human Plasma lot KC032907) was 125.02% and the Mean ([1]; Table 13, bound directly to magnetic beads, Control Human Plasma) was 154.99. The Mean ([1]; Table 13, bound directly to magnetic beads, Human Plasma lot KC011886) was 205.80, the Mean ([1]; Table 13, bound directly to magnetic beads, Human Plasma lot KC011892) was 197.63 and the Mean ([1]; Table 13, bound directly to magnetic beads, Human Plasma lot KC28719) was 195.33. The Mean ([1]; Table 13, bound directly to magnetic beads, Human Plasma lot KC032907) was 193.77, the Mean binding ([2]; Table 10, 15 nL 10% normal human brain homogenate, 70% human plasma, covalently attached to beads) was 13.2 and the Mean binding ([2]; Table 11, TBSTT with 70% Human Plasma) was 269.5. The Mean binding ([2]; Table 11, TBSTT with 70% Human Plasma containing 20 nL 10% normal human brain homogenate) was 306.4, the “enrichment of PrP^Sc over PrP^C” value ([3]; 47 pg PrP^Sc pulled down vs 7 pg of about 488 pg PrP^C) was no less than 70 fold and the increase in signal ([3]; 0.05 μl vCJD BH spiked into 70 μl plasma, versus background) was “four fold increase in signal”. The “LU, Pulldown, PrPSc” value ([3]; 70 ul plasma (70%) + 50 nl 10% vCJD BH, 3M GdnSCN) was 97.1 LU, the “pg, Pulldown, PrPSc” value ([3]; 70 ul plasma (70%) + 50 nl 10% vCJD BH, 3M GdnSCN, rPrP standard curve) was 47 pg and 47.1 pg and the “LU, Pulldown, PrPC” value [4, 9] was 25.6 LU. For the same substance, the “pg, Pulldown, PrPC” value [4, 9] was 7.3 pg, the “LU, Pulldown, PrPC” value ([4]; 70 ul plasma (70%)) was 23 LU and 23.3 LU and the “pg, Pulldown, PrPC” value ([4]; 70 ul plasma (70%)) was 6.0 pg. For the same substance, the “PrP^C bound by peptoid” value ([4]; plasma containing about 488 pg of PrP^C) was 7 pg, the S/N ([5]; 15 μl GdnSCN 3M, pH 5.9) was 11 and the “AVE vCJD + Plasma” value [5, 10] was 430.4. The “AVE vCJD + Plasma” value ([5]; 70 μl TBST, pH 7.5) was 25.5, the S/N ([5]; 70 μl TBST, pH 7.5) was 2 and the S/N ([5]; H3PO4 0.00007M, pH 4) was 1. For the same substance, the S/N ([5]; H3PO4 0.00075M, pH 3) was 1, the S/N ([5]; H3PO4 0.12M, pH 2) was 1 and the S/N ([5]; H3PO4 0.5M, pH 1) was 9. For the same substance, the “AVE vCJD + Plasma” value [5, 11] was 27.0, the “AVE vCJD + Plasma” value [5, 12] was 26.6 and the “AVE vCJD + Plasma” value [5, 13] was 122.5. For the same substance, the “AVE vCJD + Plasma” value [5, 14] was 264.0, the S/N ([5]; NaOH 0.0001M, pH 10) was 0 and the S/N ([5]; NaOH 0.001M, pH 11) was 1. The S/N ([5]; NaOH 0.1M, pH 12) was 5, the S/N ([5]; NaOH 0.1M, pH 13) was 30 and the “AVE vCJD + Plasma” value [5, 15] was 34.8. The “AVE vCJD + Plasma” value [5, 16] was 11.8, the “AVE vCJD + Plasma” value [5, 17] was 76.1 and the “AVE vCJD + Plasma” value [5, 18] was 458.1. The “AVE Plasma” value [6, 10] was 37.7, the “AVE Plasma” value ([6]; 70 μl TBST, pH 7.5) was 11.8 and the “AVE Plasma” value [6, 11] was 26.8. The “AVE Plasma” value [6, 12] was 25.8, the “AVE Plasma” value [6, 13] was 92.7 and the “AVE Plasma” value [6, 14] was 30.4. The “AVE Plasma” value [6, 15] was 197.6, the “AVE Plasma” value [6, 16] was 14.6 and the “AVE Plasma” value [6, 17] was 16.1. For the same substance, the “AVE Plasma” value [6, 18] was 15.1, the “AVE vCJD + Plasma” value ([7]; 50 μl GdnSCN 3M, pH 5.9, 50 μl NaHCO3, final pH 8.5) was 60.5 and the “AVE vCJD + Plasma” value ([7]; 100 μl TBST, pH 7.5) was 2.2. It also gave a S/N ([7]; 100 μl TBST, pH 7.5) of 1 and a S/N ([7]; H3PO4 0.00007M, pH 4) of 1.

— patent US7834144B2 (priority 2005, dated 2010)
